From patent US20250051474A1, “ANTI-CD97 ANTIBODIES AND ANTIBODY-DRUG CONJUGATES” (New York University, priority 2023, published 2025)
“Also recorded” adds a separate entry of the source.

B1: A8-MMAF (conjugate)
VH: EVQLVESGGGLVQPGGSLRLSCAASGFTISSYSIHWVRQAPGKGLEWVASISPYYGSTSYADSVKGRFTISADTSKNTAYLQMNSLRAEDTAVYYCARSWYYYEQNPYWYQKEEQALDYWGQGTLVTVSS
VL: DIQMTQSPSSLSASVGDRVTITCRASQSVSSAVAWYQQKPGKAPKLLIYSASSLYSGVPSRFSGSRSGTDFTLTISSLQPEDFATYYCQQSVYSPVTFGQGTKVEIKRTV
modifications: non-natural residues
B2: A8S293C-PBD (conjugate)
VH: EVQLVESGGGLVQPGGSLRLSCAASGFTISSYSIHWVRQAPGKGLEWVASISPYYGSTSYADSVKGRFTISADTSKNTAYLQMNSLRAEDTAVYYCARSWYYYEQNPYWYQKEEQALDYWGQGTLVTVSS
VL: DIQMTQSPSSLSASVGDRVTITCRASQSVSSAVAWYQQKPGKAPKLLIYSASSLYSGVPSRFSGSRSGTDFTLTISSLQPEDFATYYCQQSVYSPVTFGQGTKVEIKRTV

Key:
[1] = tested on: OCI-AML3 cells; assay: Cell viability assay (PrestoBlue) of ADC; format: cell-based, human; conditions: 3 days incubation
Procedure: (§1) For the cell viability assay, the cells were mixed with ADC (20,000 cells/well), and incubated at 37° C. with 5% CO2 for 3 days. After incubation, cell viability was assessed by PrestoBlue assay (Thermo Fisher), following the manufacturer's protocol. The fluorescence was measured using a FlexStation 3 multi-mode microplate reader (Molecular Devices). Dose-response curves and respective ECso were generated using Prism software (GraphPad). For the cell-killing assay, a 96-well plate was coated with 0.1% poly-D-lysine. The cells were mixed with a diluted Incucyte® Annexin V Green Dye (Sartorius) and ADC (13,500 cells/well), and incubated in an Incucyte live-cell analysis system (Sartorius) at 37° C. with 5% CO2 for 4 days. The percentage of dead cells was analyzed using Incucyte Software (Sartorious).

[2] = tested on: AML cells; assay: Cell viability assay (PrestoBlue), cell killing specificity; format: cell-based, human; conditions: cells with different CD97 levels
Procedure: as §1

[3] = tested on: OCI-AML3 cells; assay: Cell-killing assay (Annexin V staining, Incucyte); format: cell-based, human
Procedure: as §1

[4] = tested on: human peripheral blood mononuclear cells (PBMCs); assay: Cell-killing assay (Annexin V staining, Incucyte); format: cell-based; conditions: 4 days incubation
Procedure: as §1

Molecule	cell killing (cell viability) [1]	cell killing specificity versus cell-surface CD97 level [2]	cell-killing effect (cell death, Annexin V) ([3]; 4 days incubation)	specificity of cell killing ([3]; OCI-AML3 (hCD97 high) versus ExpiCHO (hCD97-null), 4 days)	killing of PBMC cells [4]
B1	potently killed OCI-AML3 cells in a dose-dependent manner; also recorded: potent cell-killing effect on OCI-AML3 cells	correlated with the cell-surface CD97 level; also recorded: inhibited cell growth only for the cells expressing a high level of CD97			
B2			potent cell-killing effect	specifically killed cells expressing high levels of CD97	did not kill PBMC cells
